Experimental data as given in article PMC12703733, “Probing Guanidino Pendant or Bridged Groups in Cyclic Antimicrobial Peptides Derived from Temporin L: A Strategy to Improve Efficacy against Gram-Negative Bacteria” (Journal of Medicinal Chemistry, 2025).
Bridge positions count the residues as written; N and C are the ends. Square brackets hold non-standard residues; d marks the D form. Ends that are not written are not given here. Phe(4-guanidino) = N=C(N)Nc1ccc(C[C@H](N)C(=O)O)cc1

How the values were obtained:
[1] = background value; cited from earlier work
[2] = biological target: the molecule itself; experiment: Thioflavin T fluorescence; LUVs of DOPE:DOPG:CL (65:23:12, mol/mol/mol) mimicking the Gram-negative membrane, 100 uM lipid, titrated with 5-50 uM peptide; 100 mM NaCl, 10 mM Tris-HCl, 25 uM ThT, pH 7.4; peptide oligomerisation within the vesicles

NCCCC[C@H](N)C(=O)O [lysine]
pK a [1]: 10.94

B1: peptide 7 (cyclic Temporin L analogue with a guanidino pendant at position 4 of the Pro3 ring) (peptide, UniProt P57104 1-13, looked up)
peptide: FV[Pro(4-guanidino)]WFKKF[dL][dE]RIL-NH2
modifications: lactam 6-10
notes: peptide 7 is peptide 2 with (4-guanidino)Pro in place of Pro3; also called compound 7; source: synthetic peptide (Fmoc-based US-SPPS, RP-HPLC purified, >97%)
% aggregation at P/L 0.5 [2]: ~60%

B2: peptide 6 (cyclic Temporin L analogue with a guanidino pendant on the para position of Phe1) (peptide, UniProt P57104 1-13, looked up)
peptide: [Phe(4-guanidino)]VPWFKKF[dL][dE]RIL-NH2
modifications: lactam 6-10; N-terminus assumed
SMILES: CC[C@H](C)[C@H](NC(=O)[C@H](CCCNC(=N)N)NC(=O)[C@H]1CCC(=O)NCCCC[C@H](NC(=O)[C@H](Cc2ccccc2)NC(=O)[C@H](Cc2c[nH]c3ccccc23)NC(=O)[C@@H]2CCCN2C(=O)[C@@H](NC(=O)[C@@H](N)Cc2ccc(NC(=N)N)cc2)C(C)C)C(=O)N[C@@H](CCCCN)C(=O)N[C@@H](Cc2ccccc2)C(=O)N[C@H](CC(C)C)C(=O)N1)C(=O)N[C@@H](CC(C)C)C(N)=O
notes: peptide 6 is peptide 2 with (p-guanidino)Phe in place of Phe1; also called compound 6; source: synthetic peptide (Fmoc-based US-SPPS, RP-HPLC purified, >97%)
% aggregation at P/L 0.5 [2]: ~40%

B3: peptide 2 (cyclic Temporin L analogue; TLcyc with D-Glu at position 10) (peptide, UniProt P57104 1-13, looked up)
peptide: FVPWFKKF[dL][dE]RIL-NH2
modifications: lactam 6-10
notes: peptide 2 is the [Pro3,DLeu9]TL frame cyclised between positions 6 (Lys) and 10 (D-Glu); Free N-terminal amine; also called compound 2; source: synthetic peptide (Fmoc-based US-SPPS, RP-HPLC purified, >97%)
% aggregation at P/L 0.5 [2]: ~60%
